Columns and labels:
[1] = molecular target: T1, recombinant human CTLA4 extracellular domain (human, UniProt P16410 36-161); test: SPR, human CTLA4 ECD immobilised
T1 construct: extracellular domain; also called huCTLA-4
T1 sequence (looked up): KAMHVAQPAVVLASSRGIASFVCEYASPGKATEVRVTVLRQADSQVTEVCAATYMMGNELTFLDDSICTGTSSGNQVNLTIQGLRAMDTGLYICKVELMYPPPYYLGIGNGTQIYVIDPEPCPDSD
Method: (§1) The CTLA4 extracellular domain (human or cynomolgus) was immobilized on the surface of a sensor chip. […] The binding kinetics were calculated using a 1:1 Longmuir model built into the analysis software.

[2] = molecular target: T2, cynomolgus CTLA4 expressed on the cell surface of CHO cells (cynomolgus, UniProt G7PL88 36-223); test: FACS on CHO-cynoCTLA4 cells, pH 6.0, mean
T2 construct: whole, on cells; also called CHO-cynoCTLA4
T2 sequence: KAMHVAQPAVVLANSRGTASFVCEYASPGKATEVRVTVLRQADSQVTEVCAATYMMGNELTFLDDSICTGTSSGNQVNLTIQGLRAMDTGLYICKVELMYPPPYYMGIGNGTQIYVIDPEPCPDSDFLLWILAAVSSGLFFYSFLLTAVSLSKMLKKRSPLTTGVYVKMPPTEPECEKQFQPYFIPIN
Method: The amount of antibodies bound on the cells was quantified using anti-human IgG antibody conjugated to fluorophores. EC₅₀ values at pH 6.0 and 7.4 for binding to cells were calculated using the nonlinear fit (variable slope, four parameters) model built into GraphPad Prism software (version 7.03). The expression levels of human CTLA4 or cynomolgus CTLA4 on the surface of the CHO cells were determined using a BD QuantiBRITE™ PE kit.

[3] = molecular target: T1, recombinant human CTLA4 extracellular …; test: SPR, human CTLA4 ECD immobilised, pH 6.0, AVG
Method: as §1

[4] = molecular target: T1, recombinant human CTLA4 extracellular …; test: SPR, human CTLA4 ECD immobilised, pH 7.4, AVG
Method: as §1

[5] = molecular target: T1, recombinant human CTLA4 extracellular …; test: SPR, human CTLA4 ECD immobilised, pH 7.4, run 3
Method: as §1

[6] = molecular target: T1, recombinant human CTLA4 extracellular …; test: ELISA, immobilised huCTLA-4, pH 6.0, mean +/- SD
Method: (§2) EC₅₀ values at pH 6.0 for binding to human CTLA4 were calculated using the nonlinear fit model (variable slope, four parameters) of GraphPad Prism version 7.03.

[7] = molecular target: T1, recombinant human CTLA4 extracellular …; test: ELISA, immobilised huCTLA-4, pH 6.0, Jun. 27, 2017
Method: as §2

[8] = molecular target: T3, recombinant cynomolgus CTLA4 extracellular domain (cynomolgus, UniProt G7PL88 36-161); test: ELISA, immobilised cynoCTLA-4, pH 6.0, Jun. 27, 2017; ELISA, pH 6.0, Jun. 27, 2017
T3 construct: extracellular domain; also called cynoCTLA-4; cynoCTLA4
T3 sequence: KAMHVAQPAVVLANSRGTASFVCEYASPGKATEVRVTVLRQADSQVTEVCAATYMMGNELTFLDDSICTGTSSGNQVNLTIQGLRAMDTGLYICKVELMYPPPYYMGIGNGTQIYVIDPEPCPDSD

[9] = molecular target: T3, recombinant cynomolgus CTLA4 …; test: ELISA, immobilised cynoCTLA-4, pH 6.0, mean +/- SD; ELISA, pH 6.0, mean of the two runs
[10] = molecular target: T1, recombinant human CTLA4 extracellular …; test: ELISA, wells coated with human CTLA4, assay pH 7.4; lot 6972 in Tris buffer, T0; unit from the axis Log[ng/mL]
Method: (§3) Both ELISA and FACS analysis were used to measure the binding activity. […] The amount of bound antibodies was quantified using anti-human IgG antibody conjugated to HRP. The absorbance at 450 nm in each measurement was proportional to the amount of antibodies bound. […] EC50 value (in ng/mL) for binding to human CTLA4 was determined by absorbance at 450 nm against antibody concentration with Prism variable slope of four-parameter dose-response curve, which was calculated using the nonlinear fit (variable slope, four parameters) model built into GraphPad Prism software (version 7.03). The buffers tested included His buffer (His), Tris buffer (Tris), Glutamine buffer (Glu) and no buffer.

[11] = molecular target: T1, recombinant human CTLA4 extracellular …; test: ELISA, wells coated with human CTLA4, assay pH 7.4; lot 6972 in Tris buffer, T2W; unit from the axis Log[ng/mL]
Method: as §3

[12] = molecular target: T4, human CTLA4 expressed on the cell surface of CHO cells (human, UniProt P16410 36-223); test: FACS, cells expressing human CTLA4, assay pH 7.4, MFI; lot 6972 in His buffer, T2W; unit from the axis Log[ng/mL]
T4 construct: whole, on cells; also called CHO-huCTLA4; huCTLA4
T4 sequence (looked up): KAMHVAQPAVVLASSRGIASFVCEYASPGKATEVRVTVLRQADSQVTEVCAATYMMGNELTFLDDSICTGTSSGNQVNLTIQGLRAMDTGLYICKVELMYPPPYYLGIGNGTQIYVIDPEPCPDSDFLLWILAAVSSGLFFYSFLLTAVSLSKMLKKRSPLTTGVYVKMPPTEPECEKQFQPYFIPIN
Method: The amount of bound antibodies was quantified using anti-human IgG antibody conjugated to fluorophores. The MFI in each reaction was proportional to the amount of antibodies bound. The EC₅₀ value (in ng/mL) for binding to human CTLA4 on cells was determined by MFI of the singlets population against antibody concentration with a Prism variable slope of four-parameter dose-response curve, which was calculated using the nonlinear fit (variable slope, four parameters) model built into GraphPad Prism software (version 7.03).

[13] = molecular target: T1, recombinant human CTLA4 extracellular …; test: ELISA, wells coated with human CTLA4, assay pH 6.0; lot 6978 in Tris buffer, T0; unit from the axis Log[ng/mL]
Method: as §3

Row | Binder | factor by which the binding activity drops from pH 6.0 to pH 7.4 [1] [fold] | EC50 [2] [µg/mL] | Kd [3] [nM] | koff [3] [s⁻¹] | kon [3] [M⁻¹ s⁻¹] | Kd [4] [nM] | koff [4] [s⁻¹] | kon [4] [M⁻¹ s⁻¹] | Kd [5] [nM] | koff [5] [s⁻¹] | kon [5] [M⁻¹ s⁻¹] | EC50 [6] [µg/mL] | EC50 [7] [µg/mL] | EC50 [8] [µg/mL] | EC50 [9] [µg/mL] | EC50 [10] [µg/mL] | EC50 [11] [µg/mL] | EC50 [12] [µg/mL] | EC50 [13] [µg/mL]
1 | BA-087-05-19 (antibody, V domains shown, Detected with anti-human IgG and a molecular weight of 146 kDa was used in SPR, so it was tested as a whole IgG; also called BA-087-05-019; BA-087-05-19 (# 6972)) VH: EVQLVESGGGLVQPGGSLRLSCAASGFTFSHYTMHWVRQAPGKGLEWVSFISYDGNNKYYADSVKGRFTISRDNSKNTLYLQMNSLRAEDTAVYYCARTGWLGPFDYWGQGTLVTVSS VL: AIQLTQSPSSLSASVGDRVTITCRASQYVGSSYLAWYLQKPGQSPQLLIYGAFSRATGIPARFSGSGSGTEFTLTISSLQSEDFAVYYCQQDGSSPWTFGQGTKVEIK | ~2 | 0.316 | 0.499 | 0.000611 | 1.23e+06 | 1.1 | 0.000958 | 869000 | 1.12 | 0.000943 | 844000 | 0.00818 | 0.00959 | 0.0397 | 0.0276 | 0.0424 | 0.0365 | 0.615 | 
2 | BA-087-08-32 (antibody, V domains shown, Detected with anti-human IgG and a molecular weight of 146 kDa was used in SPR, so it was tested as a whole IgG; also called BA-087-08-032; BA-087-08-32 (# 6978)) VH: EVQLVQSGAEVKKPGATVKISCKVSGFTFSHYTMHWIRQSPSRGLEWLGFISYDGNYKYYADSVKGRFTISRDNAKNSLYLQMNSLRAEDTAVYYCARTGWLGPFDYWGQGTLVTVSS VL: EIVMTQSPATLSVSPGERATLSCRASQSVGSSYLAWYQQKPGKAPKLLIYGAFSRATGVPSRFSGSGSGTDFTLTISSLQPEDFATYYCQQDGSSPWTFGQGTKVEIK | ~100 | 0.403 | 0.451 | 0.00163 | 3.56e+06 | 45.2 | 0.0166 | 519000 | 68.3 | 0.0132 | 194000 | 0.00978 | 0.0146 | 0.292 | 0.276 |  |  |  | 0.0171
